Results reported in paper PMC6751169.

Experiments:
[1] = target: MenDRD (MenD-RIDD with one RIDD peptide tag) (E. coli | not stated); assay: transmission electron microscopy; TEM of the SEC-purified Assemblies A, B and C; two-dimensional single-particle analysis on Assembly B
[2] = target: MenDRA (MenD-RIAD with one RIAD peptide tag) (E. coli); assay: as above
[3] = target: MenDRD (MenD-RIDD with one RIDD peptide tag) (E. coli | not stated); assay: SEC; 1.5 mg of enzyme fused with RIAD mixed with two-fold molar excess of enzyme fused with RIDD in Tris buffer pH 7.8, 1 mM EDTA, 0.02% Tween-20, no incubation; Superdex 200 10/300 GL, 0.4 mL/min, Tris pH 7.8, 50 mM NaCl; masses from a calibration curve
[4] = target: MenDRA2 (MenD-RIAD-RIAD with two sequential RIAD peptide tags) (E. coli); assay: transmission electron microscopy; TEM of the SEC-purified Assemblies A, B and C; two-dimensional single-particle analysis on Assembly B
[5] = target: CrtERD-YFP (geranylgeranyl diphosphate synthase, CrtE-RIDD, fused with yellow fluorescent protein) (UniProt P10644); assay: FRET or BRET; lifetime-based FRET (two-photon FLIM) in living E. coli cells; CFP donor excited at 810 nm, signal collected at 481 nm; strain Car2f against control strain Car1f

MenDRD (MenD-RIDD with one RIDD peptide tag) (from UniProt P10644 1-44) (enzyme)
stoichiometry N [1]: 4

MenDRA (MenD-RIAD with one RIAD peptide tag) (enzyme)
stoichiometry N [2]: 4

MenHRA (MenH-RIAD with one RIAD peptide tag) (enzyme)
stoichiometry N (MenH per 4 MenD (per particle)) [3]: 2

MenDRA2 (MenD-RIAD-RIAD with two sequential RIAD peptide tags) (enzyme)
stoichiometry N [4]: 4

IdiRA-CFP (isopentenyl diphosphate isomerase, Idi-RIAD, fused with cyan fluorescent protein) (enzyme)
FRET efficiency E [5]: 29%
